Measured values as given in patent US7850981B2, “Immuno-adjuvant PDT treatment of metastatic tumors” (QLT, Inc., priority 1999, dated 2010).
Where two headings read alike, the source gives them in different places.

Assays:
DC [1] = assay: Preliminary experiments: daily injection of FLT3 L into mice, numbers of DC; assay type: in vivo; conditions: daily injection of 10 μg into mice for 10 days
DC [2] = conditions: after multiple injections, cited from earlier work

B1: FLT3-ligand: cytokine factor promoting growth of hematopoietic progenitors; increases dendritic cell numbers (protein, UniProt P49771 27-235, looked up)
Fms-related tyrosine kinase 3 …: TQDCSFQHSPISSDFAVKIRELSDYLLQDYPVTVASNLQDEELCGGLWRLVLAQRWMERLKTVAGSKMQGLLERVNTEIHFVTKCAFQPPPSCLRFVQTNISRLLQETSEQLVALKPWITRQNFSRCLELQCQPDSSTLPPPWSPRPLEATAPTAPQPPLLLLLLLPVGLLLLAAAWCLHWQRTRRRTPRPGEQVPPVPSPQDLLLVEH
What does the source list for B1?
numbers of DC (DC [1]): dramatically increase; increase in DC numbers (DC [2]; blood): ~6 fold; increase in DC numbers (DC [2]; peripheral lymph nodes): ~4 fold; increase in DC numbers (DC [2]; spleen): approximately 17 fold
